{"source": "paper PMC10557681", "molecular_target": "recombinant WU2 (r)PspA possessing only αHD and PRD (Streptococcus pneumoniae serotype 3 strain WU2)", "assay": "SPR"}
{"substance": "recombinant lactoferrin (LF) (from UniProt P02788 20-710) (natural protein)", "values": [{"measurement": "Kd", "value": 3.89, "unit": "nM"}]}
